{"source": "patent EP4631972A1", "about": "“SITE-SPECIFIC COUPLED PEGYLATED INTERLEUKIN-2 MUTANT WITH RECEPTOR AFFINITY PREFERENCE AND USE THEREOF” (priority 2022, dated 2024)", "molecules": {"B1": {"name": "80K-1PEG-IL2-N88R-N77C: IL-2 mutant N88R, N77C, conjugation site 77, PEG molecular weight 80kD (conjugate)", "chain": "APTSSSTKKTQLQLEHLLLDLQMILNGINNYKNPKLTRMLTFKFYMPKKATELKHLQCLEEELKPLEEVLNLAQSKC(PEG 80 kDa)FHLRPRDLISRINVIVLELKGSETTFMCEYADETATIVEFLNRWITFSQSIISTLT"}}, "key": {"[1]": {"settings": "mouse, in vivo, sc, 1 mg/kg", "protocol": "(§1) Balb/c mice were purchased, with 4 mice in each group. Each IL-2 mutant to be tested was administered subcutaneously once at a dose of 1 mg/kg. Blood was collected from the orbit at different time points after administration, and the plasma was separated and the plasma drug concentration was detected by ELISA. The main pharmacokinetic parameters were calculated, and C-T curve was plotted."}, "Treg cells": {"system": "Treg cells", "assay": "Pharmacodynamic (PD) study in mice, peripheral Treg cells", "assay_type": "in vivo, Balb/c mice", "settings": "1 mg/kg s.c. single administration", "experimental": "In this example, the pharmacodynamics (PD) of each IL-2 mutant obtained in Example 6 was studied in mice after a single administration to mice. SPF grade Balb/c mice were purchased and randomly divided into groups according to body weight, with 3 mice in each group. Drug administration started on the day of grouping. The dosing and grouping information is shown in Table 9, where G1-G5 were administered once, G6 and G7 were administered once a day, for a total of three doses. 30 µl of blood was taken from each group of mice, for PEGylated IL2 mutants and the negative control, blood was collected on day 0 (pre-administration), day 2, 3, 4, 5, 6 and 7 (only for G3, G4 and G5), and for IL2 and IL2-N88R, blood was collected on day 0 (pre-administration), day 1, 2 and 3. The number of each cell subpopulation was measured by flow cytometry. Antibodies against the staining marker used in flow cytometry are shown in Table 10, and the gating settings are shown in Table 11. Table 9 Dosing and grouping table for single-dose PD study in mice"}, "[2]": {"assay": "Pharmacokinetic study in mice, single administration, plasma concentration by ELISA", "settings": "1 mg/kg s.c. single administration", "protocol": "as §1"}}}
{"molecule": "B1", "values": [{"measurement": "T1/2", "setting": "[1]", "value": "25.23 ± 3.45", "unit": "h"}, {"measurement": "activation peak of Treg proportion, time", "setting": "Treg cells", "value": 6, "unit": "days"}, {"measurement": "increase in Treg proportion at peak", "setting": "Treg cells", "value": "about 15 fold"}, {"measurement": "AUC inf", "setting": "[2]", "value": "463.63062 ± 37.7282", "unit": "µg·h/mL"}, {"measurement": "AUClast", "setting": "[2]", "value": "437.8594 ± 41.0906", "unit": "µg·h/mL"}, {"measurement": "CL", "setting": "[2]", "value": "2.17±0.18"}, {"measurement": "Cmax", "setting": "[2]", "value": "8418.72 ± 491.4", "unit": "ng/mL"}, {"measurement": "MRT", "setting": "[2]", "value": "40.08 ± 2.1", "unit": "h"}, {"measurement": "Tmax", "setting": "[2]", "value": 24, "unit": "h"}, {"measurement": "mean half-life", "setting": "[2]", "value": 25.23, "unit": "h"}, {"measurement": "mean residence time (MRT)", "setting": "[2]", "value": 40.08, "unit": "h"}]}
